Experimental data published in publication PMC3520923, “Expression, Characterization, and Cellular Localization of Knowpains, Papain-Like Cysteine Proteases of the Plasmodium knowlesi Malaria Parasite” (PLoS ONE, 2012).

Experiments:
knowpain-3 (KP3) = target: T1, knowpain-3 (KP3) (Plasmodium knowlesi, UniProt A0A384KX24); experiment: inhibition of Z-LR-AMC hydrolysis, fluorescence; format: biochemical; conditions: 10 µM inhibitor, 100 nM enzyme, 5 min preincubation, sodium acetate pH 5.5, 25 µM Z-LR-AMC; covalent
T1 construct: gene PKNH_0912900

knowpain-4 (KP4) = target: T2, knowpain-4 (KP4) (Plasmodium knowlesi, UniProt A0A384LCH8); experiment: inhibition of Z-LR-AMC hydrolysis, fluorescence; format: biochemical; conditions: 10 µM inhibitor, 10 nM enzyme, 5 min preincubation, sodium acetate pH 5.5, 25 µM Z-LR-AMC; covalent
T2 construct: gene PKNH_0912800

[1] = test system: Cc1cc(=O)oc2cc(NC(=O)[C@H](CCCNC(=N)N)NC(=O)[C@H](CC(C)C)NC(=O)OCc3ccccc3)ccc12; experiment: purified protein; conditions: 100 mM sodium acetate pH 5.5, 10 mM DTT, 37°C
[2] = test system: Cc1cc(=O)oc2cc(NC(=O)[C@H](CCCNC(=N)N)NC(=O)[C@H](Cc3ccccc3)NC(=O)OCc3ccccc3)ccc12; experiment: purified protein; conditions: 100 mM sodium acetate pH 5.5, 10 mM DTT, 37°C
From the text: (§1) fluorogenic AMC release, initial rates, ORIGIN fit on knowpain-4 (KP4)

[3] = test system: Cc1cc(=O)oc2cc(NC(=O)[C@H](CCCNC(=N)N)NC(=O)[C@H](CCCNC(=N)N)NC(=O)OCc3ccccc3)ccc12; experiment: purified protein; conditions: 100 mM sodium acetate pH 5.5, 10 mM DTT, 37°C
From the text: as §1

T2 sequence (A0A384LCH8 entry or part of it): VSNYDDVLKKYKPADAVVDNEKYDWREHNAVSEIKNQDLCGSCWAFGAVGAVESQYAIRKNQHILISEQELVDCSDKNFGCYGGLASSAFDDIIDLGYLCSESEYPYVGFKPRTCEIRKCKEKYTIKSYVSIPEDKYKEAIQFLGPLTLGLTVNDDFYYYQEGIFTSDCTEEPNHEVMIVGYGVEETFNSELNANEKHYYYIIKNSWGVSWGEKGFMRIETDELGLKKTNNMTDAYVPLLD
T1 sequence (A0A384KX24 entry or part of it): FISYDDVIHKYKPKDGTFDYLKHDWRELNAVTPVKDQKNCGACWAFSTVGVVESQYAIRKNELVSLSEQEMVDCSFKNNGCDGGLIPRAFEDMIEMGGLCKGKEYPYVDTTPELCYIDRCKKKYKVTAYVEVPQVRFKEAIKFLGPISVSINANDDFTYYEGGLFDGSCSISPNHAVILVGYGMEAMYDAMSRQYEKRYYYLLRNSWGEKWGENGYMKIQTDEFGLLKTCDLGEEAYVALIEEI

Compound | % of control activity at 10 μM (knowpain-3 (KP3)) | % of control activity at 10 μM (knowpain-4 (KP4)) | Km [1] [µM] | kcat [1] [s⁻¹] | kcat/Km [1] [M⁻¹ s⁻¹] | Km [2] [µM] | kcat [2] [s⁻¹] | kcat/Km [2] [M⁻¹ s⁻¹] | Km [3] [µM] | kcat [3] [s⁻¹] | kcat/Km [3] [M⁻¹ s⁻¹]
CC(C)C[C@H](NC(=O)[C@@H]1O[C@H]1C(=O)O)C(=O)NCCCCN=C(N)N [E64, trans-epoxysuccinyl-L-leucylamido-(4-guanidino) butane] | blocked by the cysteine protease inhibitors E64 and leupeptin | blocked by the cysteine protease inhibitors E64 and leupeptin |  |  |  |  |  |  |  |  | 
knowpain-2 (KP2) (Plasmodium knowlesi strain H) |  |  | 14.26 ± 0.27 | 0.0011 | 75.6 |  |  |  |  |  | 
knowpain-3 (KP3) (Plasmodium knowlesi strain H) |  |  | 30.56 ± 1.23 | 0.0156 | 511 |  |  |  |  |  | 
knowpain-4 (KP4) (Plasmodium knowlesi strain H) |  |  | 4.20 ± 0.25 | 0.0129 | 3070 | 4.20 ± 0.19 | 0.0062 | 1470 | 2.13 ± 0.17 | 0.0435 | 20500
